Measurements as given in patent publication US20250197467A1 (BRIGHT PEAK THERAPEUTICS, published 2025).

T1: IL-18 receptor (IL-18Rαβ) on cells (UniProt Q13478 19-541; O95256 20-599, limits assumed)
T1 sequence (looked up) 1: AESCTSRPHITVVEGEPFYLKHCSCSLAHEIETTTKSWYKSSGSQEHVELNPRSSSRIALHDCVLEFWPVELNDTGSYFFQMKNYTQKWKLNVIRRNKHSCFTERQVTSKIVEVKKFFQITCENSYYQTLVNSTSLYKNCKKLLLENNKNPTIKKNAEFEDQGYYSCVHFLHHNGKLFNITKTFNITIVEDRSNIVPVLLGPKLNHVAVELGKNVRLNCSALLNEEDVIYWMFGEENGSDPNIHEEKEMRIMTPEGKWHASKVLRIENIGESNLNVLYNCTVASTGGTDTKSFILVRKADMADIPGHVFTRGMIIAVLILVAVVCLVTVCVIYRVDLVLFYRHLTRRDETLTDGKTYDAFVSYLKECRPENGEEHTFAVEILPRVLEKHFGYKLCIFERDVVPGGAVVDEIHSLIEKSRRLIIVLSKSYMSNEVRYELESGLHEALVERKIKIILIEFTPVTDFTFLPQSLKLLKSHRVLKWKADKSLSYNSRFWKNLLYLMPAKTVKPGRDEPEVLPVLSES
T1 sequence (looked up) 2: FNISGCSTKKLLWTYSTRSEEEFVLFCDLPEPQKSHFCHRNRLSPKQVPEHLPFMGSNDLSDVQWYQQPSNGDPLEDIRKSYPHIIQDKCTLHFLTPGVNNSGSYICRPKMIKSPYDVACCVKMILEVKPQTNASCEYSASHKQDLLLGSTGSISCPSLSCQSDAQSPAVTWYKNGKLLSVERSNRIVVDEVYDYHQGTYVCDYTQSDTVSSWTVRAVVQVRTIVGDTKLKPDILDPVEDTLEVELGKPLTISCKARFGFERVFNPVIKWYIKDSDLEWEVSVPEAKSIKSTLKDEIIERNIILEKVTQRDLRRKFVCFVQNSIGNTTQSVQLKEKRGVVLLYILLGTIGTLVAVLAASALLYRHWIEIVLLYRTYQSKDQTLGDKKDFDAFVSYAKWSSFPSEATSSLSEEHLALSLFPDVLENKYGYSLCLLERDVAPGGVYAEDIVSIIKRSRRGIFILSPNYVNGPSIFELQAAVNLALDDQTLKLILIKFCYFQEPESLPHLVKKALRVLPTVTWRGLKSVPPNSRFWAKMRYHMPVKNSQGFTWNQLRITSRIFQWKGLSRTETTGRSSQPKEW


target: T1, IL-18 receptor (IL-18Rαβ) on cells; test: cell-based or functional assay

Row | Binder | EC50 (IFNγ stimulation, NK92) [nM]
1 | SEQ ID NO 48 (ligand) YFGKLESKLSVIRNLNDQVLFIDQGNRPLFEDMTDSDSRDNAPRTIFIISMYKDSQPRGMAVTISVKSECISTLSSENKIISFKEMNPPDNIKDTKSDIIFFQRSVPGHDNKMQFESSSYEGYFLASEKERDLFKLILKKEDELGDRSIMFTVQNED | 0.488
2 | SEQ ID NO 49 (ligand) YFGKLKSKLSVIRNLNDQVLFIDQGNRPLFEDMTDSDSRDNAPRTIFIISMYADAQPRGMAVTISVKSECISTLSSENKIISFKEMNPPDNIKDTKSDIIFFQRSVPGHDNKMQFESSSYEGYFLASEKERDLFKLILKKEDELGDRSIMFTVQNED | 58.5
3 | SEQ ID NO 43 (ligand) GFGKLKSKLSVIRNLNDQVLFIDQGNRPLFEDMTDSDCRDNAPRTIFIISMYADAQPRGMAVTISVKCEKISTLSCENKIISFKEMNPPDNIKDTKSDIIFFQRSVPGHDNKMQFESSSYEGYFLACEKERDLFKLILKKEDELGDRSIMFTVQNED | 6.12
4 | SEQ ID NO 45 (ligand) YFGKLKSKLSVIRNLNDQVLFIDQGNRPLFEDMTDSDCRDNAPRTIFIISMYAAAQPRGMAVTISVKCEKISTLSCENKIISFKEMNPPDNIKDTKSDIIFFQRSVPGHDNKMQFESSSYEGYFLACEKERDLFKLILKKEDELGDRSIMFTVQNED | 30
5 | SEQ ID NO 35 (ligand) GAGKLKSKLSVIRNLNDQVLFIDQGNRPLFEDMTDSDCRDNAPRTIFIISGYAAAQPRGMAVAISVKCEKISTLSCENKIISFKEMNPPDNIKDTKSDIIFFQRSVPGHDNKMQFESSSYEGYFLACEKERDLFKLILKKEDELGDRSIMFTVQNED | > 55
6 | SEQ ID NO 46 (ligand) YFGKLKSKLSVIRNLNDQVLFIDQGNRPLFEDMTDSDCRDNAPRTIFIISGYADAQPRGMAVTISVKCEKISTLSCENKIISFKEMNPPDNIKDTKSDIIFFQRSVPGHDNKMQFESSSYEGYFLACEKERDLFKLILKKEDELGDRSIMFTVQNED | 7.4
7 | SEQ ID NO 44 (ligand) YAGKLKSKLSVIRNLNDQVLFIDQGNRPLFEDMTDSDCRDNAPRTIFIISMYADAQPRGMAVTISVKCEKISTLSCENKIISFKEMNPPDNIKDTKSDIIFFQRSVPGHDNKMQFESSSYEGYFLACEKERDLFKLILKKEDELGDRSIMFTVQNED | > 1000
8 | SEQ ID NO 47 (ligand) YFGKLESKLSVIRNLNDQVLFIDQGNRPLFEDMTDSDSRDNAPRTIFIISMYKDSQPRGMAVTISVKSEKISTLSSENKIISFKEMNPPDNIKDTKSDIIFFQRSVPGHDNKMQFESSSYEGYFLASEKERDLFKLILKKEDELGDRSIMFTVQNED | 0.115

target: T1, IL-18 receptor (IL-18Rαβ) on cells; test: cell-based or functional assay; remark: another data set of the same source

Row | Binder | HEK-Blue IL-18R reporter EC50 [pM]
9 | C141 (ligand) GYFGKLKSKLSIIRNLNDQVLFIDQGNRPLFEDMTDSDARDNAPRTIFIISMYADSQPRGMAVAISVKCEKISTLSAENKIISFKEMNPPDNIKDTKSDIIFFQRSVPGHDNKMQFESSSYEGYFLAAEKERDLFKLILKKEDELGDRSIMFTVQNED | 1.68
10 | C192 (ligand) GYFGKLKSKLSIIRNLNDQVLFIDQGNRPLFEDMTDSDARDNAPRTIFIISGYADSQPRGMAVAISVKCEKISTLSAENKIISFKEMNPPDNIKDTKSDIIFFQRSVPGHDNKMQFESSSYEGYFLAAEKERDLFKLILKKEDELGDRSIMFTVQNED | 14
11 | SEQ ID NO 56 (ligand) YFGKLKSKLSVIRNLNDQVLFIDQGNRPLFEDMTDSDSRDNAPRTIFIISMYADSQPRGMAVTISVKCEKISTLSSENKIISFKEMNPPDNIKDTKSDIIFFQRSVPGHDNKMQFESSSYEGYFLASEKERDLFKLILKKEDELGDRSIMFTVQNED | 3.73
12 | C179 (ligand) YFGKLKSELSIIRNLNDQVLFIDQGNRPLFEDMTDSDARDNAPRTIFIISMYADSQPRGMAVAISVKCEKISTLSAENKIISFKEMNPPDNIKDTKSDIIFFRRSVPGHDNKMQFESSSYEGYFLAAEKERDLFKLILKKEDELGDRSIMFTVQNED | 0.4
13 | C184 (ligand) YFGKLRSKLSIIRNLNDQVLFIDQGNRPLFEDMTDSDARDNAPRTIFIISMYADSQPRGMAVAISVKCEKISTLSAENKIISFKEMNPPDNIKDTKSDIIFFQRSVPGHDNKMQFESSSYEGYFLAAEKERDLFKLILKKEDELGDRSIMFTVQNED | 0.04
14 | C177 (ligand) YFGKLKSKLSIIRNLNDQVLFIDQGNRPLFEDMTDSDARDNAPRTIFIRSMYADSQPRGMAVAISVKCEKISTLSAENKIISFKEMNPPDNIKDTKSDIIFFQRSVPGHDNKMQFESSSYEGYFLAAEKERDLFKLILKKEDELGDRSIMFTVQNED | 0.04
15 | C176 (ligand) YFGKLKSKLSIIRNLNDQVLFIDQGNRPLFEDMTDSDARDNAPRTIFIMSMYADSQPRGMAVAISVKCEKISTLSAENKIISFKEMNPPDNIKDTKSDIIFFQRSVPGHDNKMQFESSSYEGYFLAAEKERDLFKLILKKEDELGDRSIMFTVQNED | 0.07
16 | C178 (ligand) YFGKLKSKLSIIRNLNDQVLFIDQGNRPLFEDMTDSDARDNAPRTIFIISMYADSQPRGMAVAISVKCEKISTLSAENKIISFKEMNPPDNIKDTKSDIIFFRRSVPGHDNKMQFESSSYEGYFLAAEKERDLFKLILKKEDELGDRSIMFTVQNED | 0.26
17 | C181 (ligand) YFGKLKSKLSIIRNLNDQVLFIDQGNRPLFEDMTDSDARDNAPRTIFIISMYADSQPRGMAVAISVKCEKISTLSAENKIISFKEMNPPDNIKDTKSDIIFFQRSVPGHDNKMQFESSSYEGYFLAAEKERDLFKLILKKEDELGDRSIMFTEQNED | 0.1
18 | C182 (ligand) YFGKLKSKLSIIRNLNDQVLFIDQGNRPLFEDMTDSDARDNAPRTIFIISMYADSQPRGMAVAISVKCEKISTLSAENKIISFKEMNPPDNIKDTKSDIIFFQRSVPGHDNKMQFESSSYEGYFLAAEKERDLFKLILKKEDELGDRSIMFTYQNED | 0.08
19 | C142 (ligand) MFGKLKSKLSIIRNLNDQVLFIDQGNRPLFEDMTDSDARDNAPRTIFIISMYADSQPRGMAVAISVKCEKISTLSAENKIISFKEMNPPDNIKDTKSDIIFFQRSVPGHDNKMQFESSSYEGYFLAAEKERDLFKLILKKEDELGDRSIMFTVQNED | 0.02
20 | C174 (ligand) YFGKLKSLLSIIRNLNDQVLFIDQGNRPLFEDMTDSDARDNAPRTIFIISMYADSQPRGMAVAISVKCEKISTLSAENKIISFKEMNPPDNIKDTKSDIIFFQRSVPGHDNKMQFESSSYEGYFLAAEKERDLFKLILKKEDELGDRSIMFTVQNED | 0.29
21 | C183 (ligand) YFGKLKSKLSIIRNLNDQVLFIDQGNRPLFEDMTDSDARDNAPRTIFIISGYADSQPRGMAVAISVKCEKISTLSAENKIISFKEMNPPDNIKDTKSDIIFFQRSVPGHDNKMQFESSSYEGYFLAAEKERDLFKLILKKEDELGDRSIMFTVQNED | 0.1
22 | C140 (ligand) GGGGYFGKLKSKLSIIRNLNDQVLFIDQGNRPLFEDMTDSDARDNAPRTIFIISMYADSQPRGMAVAISVKCEKISTLSAENKIISFKEMNPPDNIKDTKSDIIFFQRSVPGHDNKMQFESSSYEGYFLAAEKERDLFKLILKKEDELGDRSIMFTVQNED | 2.5
